Assay results: patent publication US20250041387A1 (BEIJING STOMATOLOGICAL HOSPITAL CAPITAL MEDICAL UNIVERSITY, published 2025)

Biological target: WD repeat domain 5 (WDR5), human, endogenous in human mesenchymal stem cells (human, UniProt P61964 2-334)
Experiment: Co-IP with HA antibody, stem cells from apical papilla overexpressing HA-KDM6B
Protocol: On the next day, the cells were added with Protein A/G beads and rotated on a rotary shaker at 4° C. for 2 hours. […] All cells were incubated overnight to form a complex of protein-antibody-agarose bead. […] (2) Grouping: Input group (loading amount of 25 μg); antibody group (loading amount of 800 μg, 2 μg of antibody); IgG group (loading amount of 800 μg, 2 μg of antibody). Samples were diluted with lysate. […] (3) Preparation of protein A/G beads

B1: HA-KDM6B (full-length KDM6B with HA tag, overexpressed in stem cells from apical papilla) (enzyme)
chain: MHRAVDPPGARAAREAFALGGLSCAGAWSSCPPHPPPRSAWLPGGRCSASIGQPPLPAPLPPSHGSSSGHPSKPYYAPGAPTPRPLHGKLESLHGCVQALLREPAQPGLWEQLGQLYESEHDSEEATRCYHSALRYGGSFAELGPRIGRLQQAQLWNFHTGSCQHRAKVLPPLEQVWNLLHLEHKRNYGAKRGGPPVKRAAEPPVVQPVPPAALSGPSGEEGLSPGGKRRRGCNSEQTGLPPGLPLPPPPLPPPPPPPPPPPPPLPGLATSPPFQLTKPGLWSTLHGDAWGPERKGSAPPERQEQRHSLPHPYPYPAPAYTAHPPGHRLVPAAPPGPGPRPPGAESHGCLPATRPPGSDLRESRVQRSRMDSSVSPAATTACVPYAPSRPPGLPGTTTSSSSSSSSNTGLRGVEPNPGIPGADHYQTPALEVSHHGRLGPSAHSSRKPFLGAPAATPHLSLPPGPSSPPPPPCPRLLRPPPPPAWLKGPACRAAREDGEILEELFFGTEGPPRPAPPPLPHREGFLGPPASRFSVGTQDSHTPPTPPTPTTSSSNSNSGSHSSSPAGPVSFPPPPYLARSIDPLPRPPSPAQNPQDPPLVPLTLALPPAPPSSCHQNTSGSFRRPESPRPRVSFPKTPEVGPGPPPGPLSKAPQPVPPGVGELPARGPRLFDFPPTPLEDQFEEPAEFKILPDGLANIMKMLDESIRKEEEQQQHEAGVAPQPPLKEPFASLQSPFPTDTAPTTTAPAVAVTTTTTTTTTTTATQEEEKKPPPALPPPPPLAKFPPPSQPQPPPPPPPSPASLLKSLASVLEGQKYCYRGTGAAVSTRPGPLPTTQYSPGPPSGATALPPTSAAPSAQGSPQPSASSSSQFSTSGGPWARERRAGEEPVPGPMTPTQPPPPLSLPPARSESEVLEEISRACETLVERVGRSATDPADPVDTAEPADSGTERLLPPAQAKEEAGGVAAVSGSCKRRQKEHQKEHRRHRRACKDSVGRRPREGRAKAKAKVPKEKSRRVLGNLDLQSEEIQGREKSRPDLGGASKAKPPTAPAPPSAPAPSAQPTPPSASVPGKKAREEAPGPPGVSRADMLKLRSLSEGPPKELKIRLIKVESGDKETFIASEVEERRLRMADLTISHCAADVVRASRNAKVKGKFRESYLSPAQSVKPKINTEEKLPREKLNPPTPSIYLESKRDAFSPVLLQFCTDPRNPITVIRGLAGSLRLNLGLFSTKTLVEASGEHTVEVRTQVQQPSDENWDLTGTRQIWPCESSRSHTTIAKYAQYQASSFQESLQEEKESEDEESEEPDSTTGTPPSSAPDPKNHHIIKFGTNIDLSDAKRWKPQLQELLKLPAFMRVTSTGNMLSHVGHTILGMNTVQLYMKVPGSRTPGHQENNNFCSVNINIGPGDCEWFAVHEHYWETISAFCDRHGVDYLTGSWWPILDDLYASNIPVYRFVQRPGDLVWINAGTVHWVQATGWCNNIAWNVGPLTAYQYQLALERYEWNEVKNVKSIVPMIHVSWNVARTVKISDPDLFKMIKFCLLQSMKHCQVQRESLVRAGKKIAYQGRVKDEPAYYCNECDVEVFNILFVTSENGSRNTYLVHCEGCARRRSAGLQGVVVLEQYRTEELAQAYDAFTLAPASTSR
notes: whole, on cells; Full-length protein expressed inside human SCAPs and pulled down from lysate with HA antibody; also called PQCXIN-HA-KDM6B; SCAPs-HA-KDM6B; not shown: HA tag
binding result: binds
